Measured values: patent publication US20250340613A1 (JOINT STOCK COMPANY BIOCAD, published 2025)

T1: IL5R-His, Interleukin-5 receptor subunit alpha (Homo sapiens) aa 22-342 (Homo sapiens, UniProt Q01344 22-342)
T1 construct: not shown: His tag as the name implies
T1 sequence (looked up): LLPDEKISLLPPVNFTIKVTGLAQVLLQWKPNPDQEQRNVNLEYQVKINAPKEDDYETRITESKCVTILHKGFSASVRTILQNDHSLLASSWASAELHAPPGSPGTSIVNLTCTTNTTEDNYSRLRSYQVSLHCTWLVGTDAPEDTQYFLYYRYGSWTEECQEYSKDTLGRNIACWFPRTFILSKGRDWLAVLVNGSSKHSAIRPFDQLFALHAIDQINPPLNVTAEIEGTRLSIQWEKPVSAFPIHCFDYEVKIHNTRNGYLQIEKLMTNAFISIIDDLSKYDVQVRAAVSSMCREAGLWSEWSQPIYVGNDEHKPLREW

T2: hAng2_H6F, Angiopoietin-2 (Homo sapiens) aa 19-496 (Homo sapiens, UniProt O15123 19-496)
T2 construct: also called hAng-H6F; not shown: His and FLAG tags implied by the name 'H6F'
T2 sequence: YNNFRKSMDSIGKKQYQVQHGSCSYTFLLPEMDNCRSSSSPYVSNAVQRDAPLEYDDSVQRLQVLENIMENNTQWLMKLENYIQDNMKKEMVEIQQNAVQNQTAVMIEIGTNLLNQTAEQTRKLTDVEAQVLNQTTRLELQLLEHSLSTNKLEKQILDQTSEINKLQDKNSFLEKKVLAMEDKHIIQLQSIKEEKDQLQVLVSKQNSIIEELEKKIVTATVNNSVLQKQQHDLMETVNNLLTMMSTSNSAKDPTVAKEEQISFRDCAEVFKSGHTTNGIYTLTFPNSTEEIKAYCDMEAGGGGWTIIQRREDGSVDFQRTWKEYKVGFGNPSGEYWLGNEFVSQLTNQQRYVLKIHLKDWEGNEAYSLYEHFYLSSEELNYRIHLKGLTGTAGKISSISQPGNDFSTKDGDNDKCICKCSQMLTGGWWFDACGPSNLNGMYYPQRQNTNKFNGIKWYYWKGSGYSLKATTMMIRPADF

T3: C-Avi-His-TEVs-HSA_hBCMA, Tumor necrosis factor receptor superfamily member 17 (Homo sapiens) aa 1-54 (Homo sapiens, UniProt Q02223 1-54)
T3 construct: range 1-54; not shown: Avi, His, TEV site and HSA parts as the name implies
T3 sequence (looked up): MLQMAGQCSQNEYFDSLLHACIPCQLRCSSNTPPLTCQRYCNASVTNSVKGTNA

T4: hCD38-Avi, ADP-ribosyl cyclase/cyclic ADP-ribose hydrolase 1 (Homo sapiens) aa 43-300 (Homo sapiens, UniProt P28907 43-300)
T4 construct: range 43-300; not shown: Avi tag as the name implies
T4 sequence (looked up): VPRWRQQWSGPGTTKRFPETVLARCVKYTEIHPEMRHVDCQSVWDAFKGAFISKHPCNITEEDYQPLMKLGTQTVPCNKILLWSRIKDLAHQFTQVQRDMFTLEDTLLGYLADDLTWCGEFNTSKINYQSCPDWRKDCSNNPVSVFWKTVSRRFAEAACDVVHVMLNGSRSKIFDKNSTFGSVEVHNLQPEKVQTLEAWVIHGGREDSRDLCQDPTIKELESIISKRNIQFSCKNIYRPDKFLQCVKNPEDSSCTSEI

T5: hisOX40, Tumor necrosis factor receptor superfamily member 4 (Homo sapiens) aa 26-210 (Homo sapiens, UniProt P43489 26-210)
T5 construct: range 26-210; The tag is put first only because the name begins with His; not shown: His tag as the name implies
T5 sequence (looked up): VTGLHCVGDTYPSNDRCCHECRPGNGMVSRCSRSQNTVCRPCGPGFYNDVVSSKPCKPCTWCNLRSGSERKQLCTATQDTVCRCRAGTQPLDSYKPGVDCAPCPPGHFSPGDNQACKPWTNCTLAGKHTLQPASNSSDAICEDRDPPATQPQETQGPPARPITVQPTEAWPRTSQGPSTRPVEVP


Experiments:
[1] = target: T1, IL5R-His, Interleukin-5 receptor …; assay: BLI Octet RED 384; antibody on ProA sensor, antigen 30 ug/ml (757.6 nM); response at end of association
Method: (§1) Experimental study of nonspecific binding of bispecific chimeric antibodies to non-target antigens was performed on Forte Bio Octert RED 384. Protein A (ProA) biosensors (ForteBio) were immersed into a solution containing antibodies at a concentration of 10 μg/ml for 150 seconds to immobilize same. The baseline was recorded in a 1×KB solution for 30 seconds. The antibody-loaded sensors were then immersed into wells containing non-target antigens at a concentration of 30 μg/ml for 150 seconds. Complex dissociation was then recorded for 30 seconds.
(§2) The reference sensors went through all the steps as the sensors used to record analyte sensograms did, with the exception of the association step—at the association step, the sensors were immersed in a kinetic buffer solution without analyte (the reference sensor signals were measured in parallel with the recording of the main sensograms). The reference signal was subtracted from the signal received on sensors interacting with the analyte during the processing of sensograms.
(§3) Sensograms were processed using ForteBio Octet Data Analysisn 9.0 software. To report no non-specific interaction, the recorded signal level was checked at the end of the association step (the response parameter).

[2] = target: T2, hAng2_H6F, Angiopoietin-2 (Homo …); assay: BLI Octet RED 384; antibody on ProA sensor, antigen 30 ug/ml (510.2 nM); response at end of association
Method: as §1, §2, §3

[3] = target: T3, C-Avi-His-TEVs-HSA_hBCMA, Tumor …; assay: BLI Octet RED 384; antibody on ProA sensor, antigen 30 ug/ml (391.2 nM); response at end of association
Method: as §1, §2, §3

[4] = target: T4, hCD38-Avi, ADP-ribosyl cyclase/cyclic …; assay: BLI Octet RED 384; antibody on ProA sensor, antigen 30 ug/ml (854.7 nM); response at end of association
Method: as §1, §2, §3

[5] = target: T6, extracellular domain of the human CSF1R protein (hCSF1R_His) (Homo sapiens, UniProt P07333 20-512); assay: BLI Octet RED 384; antibody on ProA sensor, antigen 30 ug/ml (522.5 nM); response at end of association
T6 construct: range 20-512; Molecular weight 57.4 kDa; made in CHO cells; also called hCSF1_His; not shown: C-terminal His and FLAG tags
T6 sequence (P07333 20-512 limits assumed): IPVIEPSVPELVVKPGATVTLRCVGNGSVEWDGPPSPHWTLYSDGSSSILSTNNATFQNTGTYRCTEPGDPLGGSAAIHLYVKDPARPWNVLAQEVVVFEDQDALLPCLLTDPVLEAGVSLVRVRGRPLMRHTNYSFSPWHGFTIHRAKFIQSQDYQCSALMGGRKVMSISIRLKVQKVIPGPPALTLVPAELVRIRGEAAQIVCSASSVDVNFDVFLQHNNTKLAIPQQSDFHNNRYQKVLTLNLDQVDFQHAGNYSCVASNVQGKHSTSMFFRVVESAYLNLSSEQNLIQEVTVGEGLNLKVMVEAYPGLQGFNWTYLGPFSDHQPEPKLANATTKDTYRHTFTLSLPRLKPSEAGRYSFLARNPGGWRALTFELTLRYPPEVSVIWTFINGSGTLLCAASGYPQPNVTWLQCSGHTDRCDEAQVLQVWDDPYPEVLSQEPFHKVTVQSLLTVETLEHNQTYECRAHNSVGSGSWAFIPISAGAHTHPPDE
Method: as §1, §2, §3

[6] = target: T7, Her3-H6F, Receptor tyrosine-protein kinase erbB-3 (Homo sapiens) aa 21-643 (Homo sapiens, UniProt P21860 21-643); assay: BLI Octet RED 384; antibody on ProA sensor, antigen 30 ug/ml (420.8 nM); response at end of association
T7 construct: not shown: His and FLAG tags implied by the name 'H6F'
T7 sequence (P21860 21-643 limits assumed): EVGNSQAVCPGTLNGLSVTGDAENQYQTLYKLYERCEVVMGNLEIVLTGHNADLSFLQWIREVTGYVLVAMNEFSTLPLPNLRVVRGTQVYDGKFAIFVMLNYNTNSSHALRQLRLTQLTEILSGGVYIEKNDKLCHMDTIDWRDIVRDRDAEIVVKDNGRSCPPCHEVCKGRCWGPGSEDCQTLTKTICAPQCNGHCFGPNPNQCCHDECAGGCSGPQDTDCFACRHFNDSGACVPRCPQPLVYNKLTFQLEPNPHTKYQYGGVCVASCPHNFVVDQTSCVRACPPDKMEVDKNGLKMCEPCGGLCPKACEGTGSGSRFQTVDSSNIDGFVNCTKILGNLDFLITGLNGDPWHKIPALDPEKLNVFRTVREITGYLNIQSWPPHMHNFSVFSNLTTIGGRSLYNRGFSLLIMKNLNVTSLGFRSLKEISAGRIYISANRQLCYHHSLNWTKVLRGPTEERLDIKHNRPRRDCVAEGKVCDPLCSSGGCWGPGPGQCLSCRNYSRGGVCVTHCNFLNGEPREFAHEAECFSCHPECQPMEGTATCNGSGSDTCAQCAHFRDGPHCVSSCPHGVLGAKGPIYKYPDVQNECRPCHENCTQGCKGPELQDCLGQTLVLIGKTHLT
Method: as §1, §2, §3

[7] = target: T8, Macaca CSF1R_C-His, Macrophage colony-stimulating factor 1 receptor (Macaca mulatta) aa 20-513 (Macaca mulatta); assay: BLI Octet RED 384; antibody on ProA sensor, antigen 30 ug/ml (534.8 nM); response at end of association
T8 construct: range 20-513
Method: as §1, §2, §3

[8] = target: T5, hisOX40, Tumor necrosis factor receptor …; assay: BLI Octet RED 384; antibody on ProA sensor, antigen 30 ug/ml (1310 nM); response at end of association
Method: as §1, §2, §3

Binder | Signal level (nm) [1] | Signal level (nm) [2] | Signal level (nm) [3] | Signal level (nm) [4] | Signal level (nm) [5] | Signal level (nm) [6] | Signal level (nm) [7] | Signal level (nm) [8]
02-006, bivalent bispecific chimeric antibody that specifically binds to PD1 and CSF1R (bispecific antibody, human IgG1, kappa, L234A L235A, Produced in CHO cells) heavy 1: QVQLVQSGGGLVQPGGSLRLSCAASGFTFSSYWMYWVRQVPGKGLEWVSAIDTGGGRTYYADSVKGRFAISRVNAKNTMYLQMNSLRAEDTAVYYCARDEGGGTGWGVLKDWPYGLDAWGQGTLVTVSSASTKGPSVFPLAPSSKSTSGGTAALGCLVKDYFPEPVTVSWNSGALTSGVHTFPAVLQSSGLYSLSSVVTVPSSSLGTQTYICNVNHKPSNTKVDKRVEPKSCDKTHTCPPCPAPEAAGGPSVFLFPPKPKDTLYITREPEVTCVVVDVSHEDPEVKFNWYVDGVEVHNAKTKPREEQYNSTYRVVSVLTVLHQDWLNGKEYKCKVSNKALPAPIEKTISKAKGQPREPQVCTLPPSRDELTKNQVSLSCAVKGFYPSDIAVEWESNGQPENNYKTTPPVLDSDGSFFLVSKLTVDKSRWQQGNVFSCSVMHEALHNHYTQKSLSLSPGK light 1: QPVLTQPLSVSVALGQTARITCGGNNIGSKNVHWYQQKPGQAPVLVIYRDSNRPSGIPERFSGSNSGNTATLTISRAQAGDEADYYCQVWDSSTAVFGTGTKLTVLQRTVAAPSVFIFPPSDEQLKSGTASVVCLLNNFYPREAKVQWKVDNALQSGNSQESVTEQDSKDSTYSLSSTLTLSKADYEKHKVYACEVTHQGLSSPVTKSFNRGEC heavy 2: not shown light 2: QAGLTQPPSVSVAPGQTARITCGGNNIGSKSVHWYQQKPGQAPVLVVYGDSDRPSGIPERFSGSNSGNTATLTISRVEAGDEADYYCQVWDISSDHVVFGGGTQLTVLQRQVKPEAWLSSGPSPGPGRLQLVCHVSGFYPKPVWVMWMRGEQEQQGTQLGDILPNANWTWYLRATLDVADGEAAGLSCRVKHSSLEGQDIILYWRGSC | 0.0153 nm | -0.0239 nm | 0.0009 nm | 0.0158 nm | 0.573 nm | -0.0115 nm | 0.587 nm | -0.0094 nm
02-007, bivalent bispecific chimeric antibody that specifically binds to PD1 and CSF1R (bispecific antibody, human IgG1, kappa, L234A L235A, Produced in CHO cells) heavy 1: QVQLVESGGGLVRPGGSLRLSCAASEFTFDDYAMSWVRQAPGKGLEWVSAISWNGGSTNYADSVKGRFTISRDNAKNSLYLQMNSLRAEDTALYYCASTVEVAHRRLYKYLEVWGQGTLVTVSSASTKGPSVFPLAPSSKSTSGGTAALGCLVKDYFPEPVTVSWNSGALTSGVHTFPAVLQSSGLYSLSSVVTVPSSSLGTQTYICNVNHKPSNTKVDKRVEPKSCDKTHTCPPCPAPEAAGGPSVFLFPPKPKDTLYITREPEVTCVVVDVSHEDPEVKFNWYVDGVEVHNAKTKPREEQYNSTYRVVSVLTVLHQDWLNGKEYKCKVSNKALPAPIEKTISKAKGQPREPQVCTLPPSRDELTKNQVSLSCAVKGFYPSDIAVEWESNGQPENNYKTTPPVLDSDGSFFLVSKLTVDKSRWQQGNVFSCSVMHEALHNHYTQKSLSLSPGK light 1: QAGLTQPPSVSVAPGQTARITCGGNNIGSKSVHWYQQKPGQAPVLVVYGDSDRPSGIPERFSGSNSGNTATLTISRVEAGDEADYYCQVWDISSDHVVFGGGTQLTVLRTVAAPSVFIFPPSDEQLKSGTASVVCLLNNFYPREAKVQWKVDNALQSGNSQESVTEQDSKDSTYSLSSTLTLSKADYEKHKVYACEVTHQGLSSPVTKSFNRGEC heavy 2: not shown light 2: QPVLTQPLSVSVALGQTARITCGGNNIGSKNVHWYQQKPGQAPVLVIYRDSNRPSGIPERFSGSNSGNTATLTISRAQAGDEADYYCQVWDSSTAVFGTGTKLTVLQQRQVKPEAWLSSGPSPGPGRLQLVCHVSGFYPKPVWVMWMRGEQEQQGTQLGDILPNANWTWYLRATLDVADGEAAGLSCRVKHSSLEGQDIILYWRGSC | 0.0221 nm | -0.0079 nm | 0.0061 nm | 0.0088 nm | 0.537 nm | -0.0063 nm | 0.535 nm | -0.0056 nm
02-008, bivalent bispecific chimeric antibody that specifically binds to CD20 and CSF1R (bispecific antibody, human IgG1, kappa, L234A L235A, Produced in CHO cells) heavy 1: EVQLVESGGGLVQPGGSLRLSCAASGYTFTSYNMHWVRQAPGKGLEWVGAIYPGNGDTSYNQKFKGRFTISVDKSKNTLYLQMNSLRAEDTAVYYCARVVYYSNSYWYFDVWGQGTLVTVSSASTKGPSVFPLAPSSKSTSGGTAALGCLVKDYFPEPVTVSWNSGALTSGVHTFPAVLQSSGLYSLSSVVTVPSSSLGTQTYICNVNHKPSNTKVDKRVEPKSCDKTHTCPPCPAPEAAGGPSVFLFPPKPKDTLYITREPEVTCVVVDVSHEDPEVKFNWYVDGVEVHNAKTKPREEQYNSTYRVVSVLTVLHQDWLNGKEYKCKVSNKALPAPIEKTISKAKGQPREPQVCTLPPSRDELTKNQVSLSCAVKGFYPSDIAVEWESNGQPENNYKTTPPVLDSDGSFFLVSKLTVDKSRWQQGNVFSCSVMHEALHNHYTQKSLSLSPGK light 1: DIQMTQSPSSLSASVGDRVTITCRASSSVSYMHWYQQKPGKAPKPLIYAPSNLASGVPSRFSGSGSGTDFTLTISSLQPEDFATYYCQQWSFNPPTFGQGTKVEIKRTVAAPSVFIFPPSDEQLKSGTASVVCLLNNFYPREAKVQWKVDNALQSGNSQESVTEQDSKDSTYSLSSTLTLSKADYEKHKVYACEVTHQGLSSPVTKSFNRGEC heavy 2: not shown light 2: QAGLTQPPSVSVAPGQTARITCGGNNIGSKSVHWYQQKPGQAPVLVVYGDSDRPSGIPERFSGSNSGNTATLTISRVEAGDEADYYCQVWDISSDHVVFGGGTQLTVLQRQVKPEAWLSSGPSPGPGRLQLVCHVSGFYPKPVWVMWMRGEQEQQGTQLGDILPNANWTWYLRATLDVADGEAAGLSCRVKHSSLEGQDIILYWRGSC | 0.0098 nm | -0.0124 nm | -0.0023 nm | 0.0028 nm | 0.548 nm | -0.0108 nm | 0.549 nm | -0.012 nm
